Experimental findings from PMC6908968 (Cell, 2019) are described below.

For assay [1], the target named is T1, thermolysin-cleaved EBOV GP on Jurkat-GP cells (cleaved GP) (Zaire ebolavirus, Makona (GP1 core …, strain)).
T1 chain 1: not shown
T1 chain 2: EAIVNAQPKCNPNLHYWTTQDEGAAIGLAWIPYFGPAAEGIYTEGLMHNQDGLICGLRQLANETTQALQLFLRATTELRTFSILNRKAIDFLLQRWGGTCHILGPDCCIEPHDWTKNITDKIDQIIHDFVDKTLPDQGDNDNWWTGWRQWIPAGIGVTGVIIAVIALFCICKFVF

For assay [2], the target named is EBOV GP ectodomain residues 1-636 (GPec) (Zaire ebolavirus, strain  …, UniProt Q05320).

B1: 5.6.c2627 (antibody, V domains shown)
VH: QVQLVQSGAEVKKPGSSVKVSCKASGGTFSTYGFIWVRQAPGQGLDWMGGIIPIFDKTNYGQRFQGRVTITADKSTSTVHMELSSLRSEDTAVYYCARCRSGFKDPSGYFYYAMDVWGQGTTVTVSS
VL: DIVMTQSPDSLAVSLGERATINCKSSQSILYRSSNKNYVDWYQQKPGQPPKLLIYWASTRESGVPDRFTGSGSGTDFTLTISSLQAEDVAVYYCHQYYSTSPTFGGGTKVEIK
Turning to B1, the binding result in assay [1] and in assay [2] was “binds” in each case.

B2: 5.6.c3242 (antibody, V domains shown)
VH: QVQLQESGPGLVKPSATLSLTCTVSGGSISSDHWSWIRQPPGKGLEWIGHVIYSGSTNYIPSLKSRVTISIDTSKNQFSLKLRSVTAADTAVYYCARGGGWYDNWFDPWGQGTLVTVSS
VL: QSALTQPASVSGSPGQSIIISCTGTSNDVGSYNLVSWYQQHPGKAPKLMIYEGNKRPSGVSNRFSGSKSGNAASLKISGLQSEDEAEYYCCSYAGSGTWVFGGGTKLTVL
For the molecule B2, the binding result in assay [2] was “binds”.

B3: 5.6.c2455 (antibody, V domains shown)
VH: QVQLVESGGGVVQPGRSLRLSCAASGFTFSSYAIHWVRQAPGKGLEWVAVISDDGNHKYYADSVKGRFTISRDNSKNTLFLQMNSLRPEDTAVYYCAKNRLVFGVIWFYDMDVWGQGTTVTVSS
VL: QSVLTQPPSVSAAPGQKVTISCSGSSSNIGNNYVSWYQQLPGSAPKLLIYDNNKRPSGIPDRFSGSKSGTSATLDITGLQTGDEADYYCGTWDTSLRGVFGGGTKLTVL
Consider B3, for which the binding result in assay [1] and in assay [2] was “binds” each time.

B4: 5.6.c2569 (antibody, V domains shown)
VH: QVQLQESGPGLVKPSGTLSLTCAVSGGSISSPNWWSWVRQSPEKGLEWIGEVFHSGSTNYNPSLKSRATISVDNSKNQFSLRLTSVTAADTAIYYCARDLGWLVHGYFDPWGQGILVTVSS
VL: EIVLTQSPGTLSLSPGERATLSCRAGQSVSSSYVAWYQQKPGQAPRLLIYDTSSRATGIPDRFSGSGSGTDFTLTISRLEPEDFAVYYCQQYGTSRTWTFGQGTRVEIK
In the case of B4, the binding result in assay [1] and in assay [2] was “binds” each time.

B5: 5.6.c3955 (antibody, V domains shown)
VH: EVQLVESGGGLVQPGGSLRLSCAASGFTFSTYSMNWLRQAPGKGLEWISFISIRSTTTYYADSVKGRFTISRDDAKNSLYLQMNSLRDEDTAVYYCARVYMRTFYFDNWGQGTLVTVSS
VL: QSALTQPASVSGSPGQSITISCTGTSSDVGDYNYVSWYQQHPGKAPKLLIFDVSNRPSGVSNRFSGSKSGNTASLTISGLQAEDEADYYCSSYASSRTSWVFGGGTKLTVL
With B5, the binding result in assay [2] was “binds”.

B6: 5.6.c2609 (antibody, V domains shown)
VH: QVQLVESGGGVVQPGRSLRLSCAASGIAFSNYAMHWVRQAPGKGLEWVALISSDARDQYYADSVKGRFTISRDNSKSTLYLEMNSLTSEDTAIYYCASDTSSHYSSLLYNWFDSWGQGSLVTVSS
VL: DIQMTQSPSSLSASVGDRVTITCRAIQSISTFLNWYQHKPGKAPKVLIYGASNLQSGVPSRFSGSGSGTDFTLTISSLQPEDFATYYCQQSYNTPFTFGPGTKVDIK
Consider B6, for which the binding result in assay [1] and in assay [2] was “binds” each time.

B7: 5.6.c2636 (antibody, V domains shown)
VH: QVQLVQSGAEVKKPGASVKVSCKASGYTFTDYYMHWVRQAPGQGLEWLGIIIPTGTLSYAQKFQGRVTMTSDTSTNTFYMELRSLRSEDTAVYFCAREKSRDFDWELFDYWGQGTLVTVSS
VL: QSVLTQPPSASGTPGQRITISCSGSSSNIGNNAVSWYQQIPGMAPKLLIYSSNQRPSGVPDRFSGSKSGTSASLAISGLQSEDETDYYCAAWDDSLNGPVFGGGTKVTVL
Consider B7, for which the binding result in assay [1] and in assay [2] was “binds” each time.

B8: 5.6.c2670 (antibody, V domains shown)
VH: QVQLEQWGAGLLKPSETLSLTCGVNGGSFSGSYWIWIRQSPGKGLEWIGEISHSGSTNSNPSLKSRVTISVDTSKNHFSLTLSSVTAADTAVYYCATSTLDSSSVFYYSYGLDVWGQGTTVTVSS
VL: DIQMTQSPSSVSASVGDRVTITCRASQDISSWLAWYQQKPGRAPNLLIYAASSLLSGVPSRFSGSGSGTDFTLTISSLQPGDSATYYCQQGHSLPLTFGGGTKVEIR
As to B8, the binding result in assay [1] and in assay [2] was “binds” throughout.

B9: 5.6.c2644 (antibody, V domains shown)
VH: QVQLVQSGAEVKKPGASVKVSCKASGYTFSNYGITWVRQAPGQGLEWMGWISAYNGNTKYAQKVQGRVTLSTDTSTSTAYMELRSLRSDDTAIYYCARDPGMITPGGVIEHWGQGTLVTVSS
VL: DIQMTQSPSSLSASVGDRVTVTCRASQGISNYLAWYQQKPGKVPKLLIYAASTLHSGVPSRFSGSGSGTDFTLTISSLQPEDVATYVCHNYNNAPRTFGQGTKVEIK
Turning to B9, the binding result in assay [1] and in assay [2] was “binds” each time.

B10: 15.0.c888 (antibody, V domains shown)
VH: QVQLVESGGGVVQPGRSLRLSCAASGFTFSSYGMHWVRQAPGKGLEWVAVISYDGSNEYHADSVKGRFTISRDNSKNTLYLQMNSLRPEDTAVYYCAKGARSSSSLDLYYYYYYMDVWGKGTTVTVSS
VL: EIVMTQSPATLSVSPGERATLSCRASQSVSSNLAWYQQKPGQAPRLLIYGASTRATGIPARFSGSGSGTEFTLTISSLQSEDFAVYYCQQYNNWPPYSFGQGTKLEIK
Turning to B10, the binding result in assay [1] and in assay [2] was “binds” throughout.

B11: 15.0.c775 (antibody, V domains shown)
VH: EEQLLESGGGLVQPGGSLRLSCAASGFTFSGYDMSWVRQAPGKGLEWVSLLSWSGDAKYYADSVKGRFTISRDNSKNTLYLQMNSLRAEDTAVYYCAGDSSGYNNERLYYTYYMDVWGKGTTVTVSS
VL: DIQMTQSPSSVSASVGDRVTITCRANQAISSWLAWYQQKPGKAPKLLISAASSLQSGVPPRFSGSGSGTDFTLTISSLQPEDFATYYCQQANSFPLTFGGGTKVEIK
On to B11, for which the binding result in assay [1] and in assay [2] was “binds” throughout.

B12: 5.6.c2460 (antibody, V domains shown)
VH: QLQLQESGPGLVKPSETLSLSCSVSGGSISSSDDHWGWIRQSPGKGLEWIGSVSYSGSVYYNPSLKSRVTISVDTSKTQFSLRLRSVTAADTAVYNCARHRSDQMLFYWFDPWGQGTLVTVSS
VL: ETLMTQSPATLSVTPGESATLSCRASQTISSSLAWFQQKPGQAPRLLIHGASTRATGIPARFSGSGSGTEFTFTISSLQSEDFAVYFCQQYHNWPPTFGQGTKVEIK
Turning to B12, the binding result in assay [1] and in assay [2] was “binds” each time.

B13: 5.6.c2485 (antibody, V domains shown)
VH: QVTLKESGPVLVKPTETLTLTCTVSGFSLSTARMGVGWIRQPPGKALEWLAHIFSDDEKSYSTSLKSRLTISKDTSKSQVVLTMTNMDPVDTATYYCARIQSSEWIYYYYGMDVWGQGTTVTVSS
VL: DIQMTQSPSSVSASIGDTVTITCRASQDLSYWLAWYQQKPGKAPKLLIYAASSLQSGVPSRFSGSGSGTDFTLTISSLQPEDFATYYCQQAHSFPITFGQGTRLEIK
Turning to B13, the binding result in assay [1] and in assay [2] was “binds” each time.

B14: 15.0.c770 (antibody, V domains shown)
VH: QVHLVESGGGVVQPGRSLRLSCAVSGFTFSSCGMHWVRQAPGKGLEWVAVISYDGSDKYYADSVKGRFTISRDNSNNTLYLQMNSLSIEDTAVYYCAKDYYYGSGSDLYYYYYGMDVWGLGTTVTVSS
VL: EIVLTQSPGTLSLSPGDRATLSCRASQSVSSTYLAWYQQKPGQAPRLLIYGASSRATGIPDRFSGSGSGTDFTLTISRLEPEDFAVYYCQQYVTSPYSFGQGTKLEIK
As to B14, the binding result in assay [1] and in assay [2] was “binds” each time.

B15: 5.6.c2517 (antibody, V domains shown)
VH: QVQLQQWGAGLLKPSETLSLSCSVYPGSFSGYYWAWIRQPPGKGLEWIGEINHSGSTKYNPSLKSRVTISIDTSKNQLSLKMSSVTAADSAVYYCASLTRSSWFRAFDYWGQGTLVTVSS
VL: QSALTQPASVSGSPGQSITISCTGSSSDIGGYDYVSWYQQHPGKAPKLMIFDVSDRPSGVSNRFSGSKSGNTASLTISGLQPEDEADYYCSSYTSISSSYVFGTGTKVTVL
For the molecule B15, the binding result in assay [1] and in assay [2] was “binds” throughout.

B16: 5.6.c2526 (antibody, V domains shown)
VH: QVQLVESGGGVVQPGGSLRLACAASGFTFSNSGLHWIRQAPGKGLEWMTVISHDGNNKYYADSVKGRFTISRDNSENMLYLQMNSLRPEDTAVYYCARDRIRYSDWGVYYYYNGMDVWGQGTTVTVSS
VL: QSVLTQPPSVSAAPGQKVTISCSGSISNIGNHYVSWYKQLPGTAPKVLIYDNNKRPSGIPDRFSGSKSGTSATLGLTGLQTGDEADYFCGTWDSSLSVWVFGGGTKLTVL
As to B16, the binding result in assay [1] and in assay [2] was “binds” in each case.

B17: 5.6.c2481 (antibody, V domains shown)
VH: QLQLQESGPGLVKPSETLSLTCTVSGGSISSSTYYWGWIRQPPGKGLEWIGSIFYRGITYYNPSLKSRVTISVDTSKNQFSLKLSSVTAADTAVYYCARGGVIVLMVYAIVPPDVWGQGTTVTVSS
VL: QSALTQPASVSGSPGQSITISCTGSRSDVGGYNYVSWYQQHPGKAPKLMISDVSNRPSGVSNRFSGSKSGNTASLTISGLQAEDEADYYCSSYTSSSTVVFGGGTKLTVL
In the case of B17, the binding result in assay [1] and in assay [2] was “binds” throughout.

B18: 5.6.c2633 (antibody, V domains shown)
VH: EVQLVQSGGGLVQPGGSLTLSCAASGFTFTDHWIHWVRQAPGKGLEWVANVKPDGSEKYYVDSVKGRFTISRDNAKKSLSLQMNSLRADDTAVYYCARSQLEGLGDLFYYNFGLDVWGQGTTVTVSS
VL: EIVMTQSPATLSVSPGERATLSCRASQSVNSNLAWYQQKPGQAPRLLIYGASTRATGIPARFSGRGSGTDFTLTISSLQSEDFALYYCQQYNTWPPLTFGGGTKVEIN
For B18, the binding result in assay [1] and in assay [2] was “binds” throughout.

B19: 5.6.c2518 (antibody, V domains shown)
VH: EVQLVESGGGVVQPGGSLKLSCAASGFTFDDHAMHWVRQAPGKGPEWVSLISWDGANSYYANSVRGRFTVSRDNSKNSLFLQMNSLRTEDTALYYCARDLHNYAFWSGYPDYWGRGTLVTVSS
VL: DIQLTQFPSSLSASVGDRVVITCRASQSISSSLNWYQQKPGNAPQLLIYTVSSLYTGVPSRFSGSASGTDFTLTISSLRPEDFATYYCQQTHSVPYTFGQGTKLEIK
Turning to B19, the binding result in assay [1] and in assay [2] was “binds” in each case.
